Results reported in PMC2938230 (Nucleic Acids Research, 2010).

Target: T1, GAL4 DBD-hRARγ (human, UniProt P13631 1-454)
T1 sequence (looked up): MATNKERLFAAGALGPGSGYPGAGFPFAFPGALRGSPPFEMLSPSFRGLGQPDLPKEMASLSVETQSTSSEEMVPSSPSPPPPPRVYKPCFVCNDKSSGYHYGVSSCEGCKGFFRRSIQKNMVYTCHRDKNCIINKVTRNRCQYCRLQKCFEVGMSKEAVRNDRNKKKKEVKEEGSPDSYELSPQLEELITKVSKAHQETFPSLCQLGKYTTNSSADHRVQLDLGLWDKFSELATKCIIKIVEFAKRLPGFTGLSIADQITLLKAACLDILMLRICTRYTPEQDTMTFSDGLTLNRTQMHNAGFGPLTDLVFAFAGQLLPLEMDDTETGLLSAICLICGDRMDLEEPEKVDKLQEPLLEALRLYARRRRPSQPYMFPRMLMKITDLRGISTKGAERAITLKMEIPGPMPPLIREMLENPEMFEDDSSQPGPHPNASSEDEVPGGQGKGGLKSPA
Assay: two-hybrid

- fold interaction relative to RARα: 3 fold
B1: GAL4 AD-hADA3 (pACT2) (natural protein, human, UniProt O75528-1 1-432, looked up)
chain: MSELKDCPLQFHDFKSVDHLKVCPRYTAVLARSEDDGIGIEELDTLQLELETLLSSASRRLRVLEAETQILTDWQDKKGDRRFLKLGRDHELGAPPKHGKPKKQKLEGKAGHGPGPGPGRPKSKNLQPKIQEYEFTDDPIDVPRIPKNDAPNRFWASVEPYCADITSEEVRTLEELLKPPEDEAEHYKIPPLGKHYSQRWAQEDLLEEQKDGARAAAVADKKKGLMGPLTELDTKDVDALLKKSEAQHEQPEDGCPFGALTQRLLQALVEENIISPMEDSPIPDMSGKESGADGASTSPRNQNKPFSVPHTKSLESRIKEELIAQGLLESEDRPAEDSEDEVLAELRKRQAELKALSAHNRTKKHDLLRLAKEEVSRQELRQRVRMADNEVMDAFRKIMAARQKKRTPTKKEKDQAWKTLKERESILKLLDG
